Assay [1] deals with T1, SARS-CoV-2 spike receptor-binding domain (RBD) (SARS-CoV-2, UniProt P0DTC2, biotin (biotinylated RBD in the BLI experiments only)). Briefly: bead-based multiplex ACE2 competition assay.
The target in assay [2] is T1, SARS-CoV-2 spike receptor-binding …. Briefly: BLI.

Consider 1 molecule from doi:10.1101/2020.09.22.308338 (bioRxiv, 2020).

B1: nanobody NM1230 (VHH)
VHH: QVQLVESGGGLVRPGGSLRLSCVGSGFTFSGYAMNWYRQAPGKALELVAGISNAGDLTHYEEPMKGRVAISRANDKNTVYLQMDDLKPEDTAVYRCHAPGVRVGTGERKDVWGQGAQVTVSS
B1 came in with a half-maximal inhibitory concentration (IC50) in assay [1] of 2.12 nM. The molecule further came in with a Kd in assay [2] of 8.23 nM.
